Measurements: patent US11819552B2, “Antibody-drug conjugates targeting uPARAP” (RIGSHOSPITALET, priority 2016, dated 2023)
Entries after “also recorded” stand apart in the source; their conditions may differ.

Molecular target: T1, mouse uPARAP (Mus musculus, UniProt Q64449)
T1 sequence (Q64449 31-1479): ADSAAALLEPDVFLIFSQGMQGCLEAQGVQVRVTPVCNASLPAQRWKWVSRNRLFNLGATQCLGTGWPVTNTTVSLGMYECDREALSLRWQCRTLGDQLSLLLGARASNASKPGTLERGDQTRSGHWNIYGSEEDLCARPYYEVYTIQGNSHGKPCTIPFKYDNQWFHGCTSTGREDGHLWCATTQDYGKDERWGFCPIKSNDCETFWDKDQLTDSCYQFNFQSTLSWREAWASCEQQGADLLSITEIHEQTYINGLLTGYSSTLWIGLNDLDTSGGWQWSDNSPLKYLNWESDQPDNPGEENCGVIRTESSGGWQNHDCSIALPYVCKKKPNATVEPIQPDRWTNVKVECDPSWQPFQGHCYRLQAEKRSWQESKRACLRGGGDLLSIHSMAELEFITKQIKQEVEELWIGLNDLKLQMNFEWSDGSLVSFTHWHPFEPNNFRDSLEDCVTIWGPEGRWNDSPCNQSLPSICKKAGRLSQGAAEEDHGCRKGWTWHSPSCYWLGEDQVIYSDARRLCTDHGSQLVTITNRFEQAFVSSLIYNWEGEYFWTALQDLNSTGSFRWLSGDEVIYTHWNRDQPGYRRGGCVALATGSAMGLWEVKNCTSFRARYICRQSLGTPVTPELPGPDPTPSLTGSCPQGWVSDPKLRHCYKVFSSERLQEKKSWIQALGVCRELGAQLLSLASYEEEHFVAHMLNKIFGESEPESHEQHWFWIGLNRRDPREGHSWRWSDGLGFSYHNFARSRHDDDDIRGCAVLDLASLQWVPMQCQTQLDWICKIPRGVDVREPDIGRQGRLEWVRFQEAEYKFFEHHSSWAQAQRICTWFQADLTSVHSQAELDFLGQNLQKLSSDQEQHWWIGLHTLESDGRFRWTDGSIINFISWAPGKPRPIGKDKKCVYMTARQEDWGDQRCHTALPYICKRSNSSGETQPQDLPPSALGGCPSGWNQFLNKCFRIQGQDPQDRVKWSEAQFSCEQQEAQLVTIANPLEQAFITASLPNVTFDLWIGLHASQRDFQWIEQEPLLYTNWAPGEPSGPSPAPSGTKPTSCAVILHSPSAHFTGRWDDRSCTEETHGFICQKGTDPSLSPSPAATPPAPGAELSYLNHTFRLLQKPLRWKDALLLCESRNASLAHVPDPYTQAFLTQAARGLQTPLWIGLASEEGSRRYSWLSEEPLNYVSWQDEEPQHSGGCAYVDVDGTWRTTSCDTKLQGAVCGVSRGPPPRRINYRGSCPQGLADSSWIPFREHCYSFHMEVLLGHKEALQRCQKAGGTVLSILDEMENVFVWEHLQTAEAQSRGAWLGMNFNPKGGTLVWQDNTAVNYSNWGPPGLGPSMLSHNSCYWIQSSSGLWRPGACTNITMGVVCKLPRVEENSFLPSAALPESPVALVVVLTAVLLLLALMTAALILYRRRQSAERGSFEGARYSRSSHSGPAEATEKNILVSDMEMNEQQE
Assay: Antibody reactivity with uPARAP
Type: binding
Conditions: listed as 2h9

B1: mAb 2h9: mouse monoclonal IgG1k anti-uPARAP antibody clone 2.h.9: F12, produced by hybridoma cell culture (protein)
light: DIQMTQSPASQSASLGESVTITCLASQTIGTWLAWYQQKPGKSPQLLIYAATTLTDGVPSRFSGAGSGTKFSLKISSLQAEDFASYFCQEFFSTPFTFGSGTKLELKRADAAPTVSIFPPSSEQLTSGGASVVCFLNNFYPKDINVKWKIDGGERQNGVLNSWTDQDSKDSTYSMSSTLTLTKDEYERHNSYTCEATHKTSTSPIVKSFNRNEC
heavy: QVQLQQPGTELVRPGLSVKLSCKASGYTFTSYWMNWVKQRPGQGLEWIGMIHPSNDEKRINQKFKDKATLTVDKFSSTVYMQVSSPTSEDSAVYYCARGGGDYVGDYALDFWGQGTSVTVSSAKTTPPSVYPLAPGSAAQTNSMVTLGCLVKGYFPEPVTVTWNSGSLSSGVHTFPAVLQSDLYTLSSSVTVPSSTWPSETVTCNVAHPASSTKVDKKIVPRDCGCKPCICTVPEVSSVFIFPPKPKDVLTITLTPKVTCVVVDISKDDPEVQFSWFVDDVEVHTAQTQPREEQFNSTFRSVSELPIMHQDWLNGKEFKCRVNSAAFPAPIEKTISKTKGRPKAPQVYTIPPPKEQMAKDKVSLTCMITDFFPEDITVEWQWNGQPAENYKNTQPIMDTDGSYFIYSKLNVQKSNWEAGNTFTCSVLHEGLHNHHTEKSLSHSPGK
Reactivity with mouse uPARAP: reactive against both human and murine uPARAP; also recorded: reacts with both human and mouse uPARAP
